In patent US20170008949A1 (Hoffmann-La Roche, published 2017):

Tests used:
[1] = biological target: recombinant non-glycosylated human PAI-1 (active), produced in E. coli as N-terminal 6xHis-tagged fusion … (human, UniProt P05121 24-402); experiment: cell-based or functional assay
[2] = biological target: recombinant glycosylated human PAI-1 (active), produced in insect cells (human, UniProt P05121 24-402, glycosylated (sites not given)); experiment: cell-based or functional assay
Sequence of recombinant glycosylated human PAI-1 (active), produced in insect cells (P05121 24-402 limits assumed): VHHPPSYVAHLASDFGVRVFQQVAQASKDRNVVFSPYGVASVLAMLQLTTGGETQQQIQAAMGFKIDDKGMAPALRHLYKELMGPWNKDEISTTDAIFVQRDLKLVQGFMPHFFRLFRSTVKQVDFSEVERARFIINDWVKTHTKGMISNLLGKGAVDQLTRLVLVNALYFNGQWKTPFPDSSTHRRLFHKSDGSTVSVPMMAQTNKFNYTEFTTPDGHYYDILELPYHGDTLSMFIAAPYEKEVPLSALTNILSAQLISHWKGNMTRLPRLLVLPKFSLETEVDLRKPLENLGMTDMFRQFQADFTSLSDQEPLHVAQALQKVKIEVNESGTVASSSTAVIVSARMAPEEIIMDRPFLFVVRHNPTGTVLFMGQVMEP

Sequence of recombinant non-glycosylated human PAI-1 (active), produced in E. coli as N-terminal 6xHis-tagged fusion … (P05121 24-402 limits assumed): as above

B1: PAI1-0046 (reference PAI-1 latency inducing antibody with a human IgG4 SPLE Fc-region) (antibody, V domains shown)
VH: QVQLVQSGAEVKKPGASVKVSCKASGYTFTNYGMNWVRQAPGQGLEWMGWINTYTGEPTYTDDFKGRFTMTLDTSISTAYMELSRLRSDDTAVYYCAKDVSGFVFDYWGQGTLVTVSS
VL: DIVMTQSPDSLAVSLGERATINCKSSQSLLNIIKQKNCLAWYQQKPGQPPKLLIYWASTRESGVPDRFSGSGSGTDFTLTISSLQAEDVAVYYCQQYYSYPYTFGQGTKLEIKR
[1]
  IC50 (µM) vs. human PAI-1, PAI-1 inhibition assay (residual rPA serine protease activity): 0.005 µM
[2]
  IC50 (µM) vs. human PAI-1, PAI-1 inhibition assay (residual rPA serine protease activity): 0.065 µM
